Measured values taken from patent US20170081401A1 (CLOSED JOINT STOCK COMPANY BIOCAD, published 2017).

Columns and labels:
[1] = target: T1, human IL-17A (human, UniProt Q16552 20-155, limits assumed); experiment: cell-based or functional assay
[2] = target: T2, rat IL-17A (rat, UniProt Q61453 18-150, limits assumed); experiment: BLI, OctetRed 96, BCD085 immobilized on AR2G sensors, IL-17A as analyte
T2 sequence (looked up): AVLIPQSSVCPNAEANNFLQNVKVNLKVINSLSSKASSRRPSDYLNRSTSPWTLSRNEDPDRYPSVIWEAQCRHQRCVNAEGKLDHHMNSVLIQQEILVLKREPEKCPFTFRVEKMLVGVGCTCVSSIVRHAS
Experimental: (§1) The affinity of BCD085 binding with human, monkey and rat IL-17A was analyzed on OctetRed 96 (ForteBio). BCD085 was non-specifically immobilized on the surface of amine reactive second-generation sensors (AR2G) according to the standard protocol described in the manufacturer's manual. The test was conducted at a temperature of 30° C. and using PBS with 0.1% Tween-20 and 0.1% BSA as a working buffer.
(§2) Binding curves (after subtracting a reference signal) were analyzed using Octet Data Analysis software (Version 7.0) in accordance with the standard procedure and using 1:1 interaction model.

[3] = target: T1, human IL-17A; experiment: BLI, OctetRed 96, BCD085 immobilized on AR2G sensors; human against monkey IL-17A
Experimental: as §1, §2

[4] = target: T1, human IL-17A; experiment: BLI (OctetRed 96), BCD085 on AR2G sensors, human IL-17A as analyte, row 'Concentration (nm)' 34,3; 1:1 model; R^2 0,937248
Experimental: as §1, §2

[5] = target: T1, human IL-17A; experiment: BLI (OctetRed 96), BCD085 on AR2G sensors, human IL-17A as analyte, row 'Concentration (nm)' 68,6; 1:1 model; R^2 0,973327
Experimental: as §1, §2

[6] = target: T3, monkey IL-17A (Macaca mulatta) (Macaca mulatta, UniProt F6T3G5 24-155); experiment: BLI (OctetRed 96), BCD085 on AR2G sensors, monkey IL-17A as analyte, row 'Concentration (nm)' 17,2; 1:1 model; R^2 0,983707
T3 sequence (F6T3G5 entry or part of it): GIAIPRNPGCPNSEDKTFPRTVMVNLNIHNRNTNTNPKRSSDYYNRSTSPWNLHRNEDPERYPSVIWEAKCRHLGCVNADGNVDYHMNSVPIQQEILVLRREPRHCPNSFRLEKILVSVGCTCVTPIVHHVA
Experimental: as §1, §2

[7] = target: T3, monkey IL-17A (Macaca mulatta); experiment: BLI (OctetRed 96), BCD085 on AR2G sensors, monkey IL-17A as analyte, row 'Concentration (nm)' 34,4; 1:1 model; R^2 0,964905
Experimental: as §1, §2

[8] = target: T3, monkey IL-17A (Macaca mulatta); experiment: BLI (OctetRed 96), BCD085 on AR2G sensors, monkey IL-17A as analyte, row 'Concentration (nm)' 68,7; 1:1 model; R^2 0,956946
Experimental: as §1, §2

T1 sequence (Q16552 20-155 limits assumed): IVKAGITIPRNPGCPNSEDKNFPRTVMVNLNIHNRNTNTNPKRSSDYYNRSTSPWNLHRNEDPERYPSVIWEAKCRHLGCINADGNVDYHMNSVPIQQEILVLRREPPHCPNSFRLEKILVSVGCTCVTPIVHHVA

B1: BCD085 monoclonal anti-IL-17A antibody (antibody, V domains shown)
VH: QVQLVQSGGGLVQPGGSLRLSCAADGFTFSNYAMSWVRQAPGKGLEWVSRIEGGIGSSTYAVDSVKDRFTISRDDAKNTLYLQMSSLKTEDTAVYYCAVNYYGMYYWGQGTLVTVSS
VL: QSVLTQPPSVSVAPGKTVTISCTGTSEDVGFGNYVSWYQHLPGTAPKLLIYRVNTRPSGVPDRFSGSQSGNTASLTISGLQAEDEADYYCSSYKAGGTYVFGGGTKLTVLG
notes: Full-length antibody produced in CHO-S cells; also called the candidate; monoclonal anti-IL-17A antibody of the invention
Which “IC50, blocking of IL-17-induced IL-6 production by human HT1080 cells (40 ng/ml IL-17 + 20 ng/ml TNF-alpha), IL-6 measured by ELISA” value [1] does the source give for B1 here?
The value was 0.04 nM.

Does B1 bind [2]?
Result: no binding (tested: 126 nM (highest concentration titrated))

And the “fold stronger affinity than to monkey IL-17A” value [3]?
The value was 1000 fold.

And the Kd [4]?
Its Kd is less than 0.001 nM.

And the Kd [5]?
Its Kd is less than 0.001 nM.

What about the Kd [6] of the same binder?
Its Kd is 2.22 nM.

And the Kd [7]?
Its Kd is 4.15 nM.

And the Kd [8]?
Its Kd is 5.97 nM.
